Patent US20090136527A1
Non-standard residues stand in square brackets, D forms with d. pGlu = O=C1CC[C@@H](C(=O)O)N1

T1: human GnRH receptor (human) (UniProt P30968)
T1 sequence (looked up): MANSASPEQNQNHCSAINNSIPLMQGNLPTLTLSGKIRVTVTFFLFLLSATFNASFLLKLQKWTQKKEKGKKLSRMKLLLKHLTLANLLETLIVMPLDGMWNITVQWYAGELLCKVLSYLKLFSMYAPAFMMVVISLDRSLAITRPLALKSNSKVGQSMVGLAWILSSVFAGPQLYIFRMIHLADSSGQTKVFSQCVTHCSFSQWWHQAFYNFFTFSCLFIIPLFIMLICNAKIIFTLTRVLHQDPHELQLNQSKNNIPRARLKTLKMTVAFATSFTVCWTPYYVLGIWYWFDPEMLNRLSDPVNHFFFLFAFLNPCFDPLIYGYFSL

B1: GnRH II ([His5, Trp7, Tyr8]GnRH) (peptide)
peptide: [pGlu]HWSHGWYPG-NH2
SMILES: NC(=O)CNC(=O)[C@@H]1CCCN1C(=O)[C@H](Cc1ccc(O)cc1)NC(=O)[C@H](Cc1c[nH]c2ccccc12)NC(=O)CNC(=O)[C@H](Cc1c[nH]cn1)NC(=O)[C@H](CO)NC(=O)[C@H](Cc1c[nH]c2ccccc12)NC(=O)[C@H](Cc1c[nH]cn1)NC(=O)[C@@H]1CCC(=O)N1
B2: chicken GnRH I ([Gln8]GnRH) (peptide)
peptide: EHWSYGLQPG
modifications: pGlu (pyroglutamate) at position 1; C-terminal amide

Columns and labels:
[1] = target: T1, human GnRH receptor (human); experiment: cell-based or functional assay
[2] = target: affinity purified rabbit anti-RI-GnRH antibody fraction eluted with potassium thiocyanate, first fraction (KSCN 1); experiment: inhibition ELISA: antibody fraction preincubated with free peptide, binding to coated RI-GnRH

Row | Binder | half-maximal effective concentration (EC50) of IP production [1] | IC50 (read off the curve) [2]
1 | B1 | 1 nM | –
2 | B2 | 1 nM | 100 nM
